{
  "source": "paper PMC12615776",
  "about": "“Conformational alteration of DOCK5•ELMO1 signalosome on lipid membrane” (Communications Biology, 2025)",
  "binders": {"B1": {"name": "human RhoG (residues 1–191, Q61L mutant), C-terminal His10 (natural protein)", "chain": "not shown", "notes": "human RhoG, residues 1–191, Q61L; 10 μM GTP and 1 mM MgCl2 were added during purification to obtain the active form; Anchored to the lipid monolayer through His10 and DOGS-NTA(Ni); also called RhoG^Q61L; constitutively active mutant of RhoG; source: E. coli cell-free protein synthesis, purified (HisTrap, TEV cleavage, second HisTrap, SEC Superdex 75); not shown: N11 (modified natural …)"}},
  "target": "T1, human ELMO1, full length (residues 1–727), tag cleaved (human, UniProt Q92556 1-727)",
  "T1 construct": "human ELMO1, full length, residues 1–727; Purified as a complex with DOCK5; also called engulfment and cell motility 1; source: FreeStyle 293-F cells, co-expressed with DOCK5, purified (Streptavidin Sepharose, TEV cleavage, SEC Superose 6); not shown: FLAG, N-terminal, cleaved",
  "T1 sequence (Q92556 whole entry, the tested form may be a part)": "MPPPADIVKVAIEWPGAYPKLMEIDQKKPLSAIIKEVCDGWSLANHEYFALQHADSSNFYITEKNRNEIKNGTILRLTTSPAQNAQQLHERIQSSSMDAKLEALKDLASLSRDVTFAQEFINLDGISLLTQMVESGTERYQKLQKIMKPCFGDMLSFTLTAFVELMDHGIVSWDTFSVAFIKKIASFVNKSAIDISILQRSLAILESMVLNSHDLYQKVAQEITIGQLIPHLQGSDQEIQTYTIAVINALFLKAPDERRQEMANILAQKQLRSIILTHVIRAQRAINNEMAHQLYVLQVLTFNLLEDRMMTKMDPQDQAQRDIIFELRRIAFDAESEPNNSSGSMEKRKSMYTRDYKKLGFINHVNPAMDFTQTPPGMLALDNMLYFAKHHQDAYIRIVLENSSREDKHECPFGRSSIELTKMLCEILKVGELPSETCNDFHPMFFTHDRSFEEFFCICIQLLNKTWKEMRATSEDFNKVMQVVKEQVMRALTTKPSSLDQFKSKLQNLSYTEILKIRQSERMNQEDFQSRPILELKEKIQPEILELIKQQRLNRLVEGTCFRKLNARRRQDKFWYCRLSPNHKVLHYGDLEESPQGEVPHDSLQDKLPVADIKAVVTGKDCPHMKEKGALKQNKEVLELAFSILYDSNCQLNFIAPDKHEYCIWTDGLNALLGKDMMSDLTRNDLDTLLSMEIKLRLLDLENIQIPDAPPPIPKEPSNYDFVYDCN",
  "experiment": "cryo-EM structure; purified DOCK5•ELMO1 complex mixed with a two-fold molar excess of Rac1^G15A-His10 and RhoG^Q61L-His10, pre-incubated on ice at least 1 h in 20 mM HEPES-NaOH pH 7.0, 150 mM NaCl, 1 mM MgCl2 (final 0.4 μM); bound to a lipid monolayer-coated grid [67PC/21PA/6PIP3/6DOGS-NTA Ni (mol%)]; single-particle analysis, C2, 6.98 Å (local 7.52 Å)",
  "conditions": "both partners purified",
  "data": [
    {"binder": "B1", "values": [
      {"measurement": "binding result", "result": "binds"}
    ]}
  ]
}
